Measured values published in patent publication US12552834 (MIT, dated 2026).

Biological target: T1, ENAH EVH1 domain (monomeric, wild type) (human, UniProt Q03173 1-111 (mouse entry))
T1 construct: ENAH residue numbers in the text count from the Met at position 25 of this entry; also called ENAH EVH1 WT; Mena EVH1 WT
Test: BLI, steady state; SUMO-peptide immobilised, EVH1 monomer in solution
Procedure: All BLI experiments were performed with 2 replicates on an Octet Red96 instrument (ForteBio). […] The loaded tips were immersed in a solution of ENAH EVH1 domain at a relevant dilution series in BLI buffer at an orbital shake speed of 1000 rpm and run until the binding signal plateaued. ENAH-bound tips were subsequently placed into BLI buffer only for dissociation and run until the binding signal plateaued. K_D values were obtained through steady state analysis. […] The association phases were then fit to a one-phase binding model in Prism and the equilibrium steady-state binding signal values from that fit were plotted against ENAH concentration and fit to a single-site specific binding model in Prism to obtain dissociation constants. Errors reported are the standard deviation of two replicates.

T1 sequence (Q03173 other isoform, or with tags, fused parts or gaps limits assumed): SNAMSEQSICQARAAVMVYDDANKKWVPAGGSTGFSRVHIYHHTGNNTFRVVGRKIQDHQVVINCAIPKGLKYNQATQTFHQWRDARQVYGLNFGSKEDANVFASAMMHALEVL

Binder | Kd
FYB1 36-mer peptide (biotinylated (BAP tag), Tested as a biotinylated BAP-6xHis-SUMO-peptide fusion) peptide: MAGGLNDIFEAQKIEWHEDTGGSSHHHHHHGSGSGSDSEVNQEAKPEVKPEVKPETHINLKVSDGSSEIFFKIKKTTPLRRLMEAFAKRQGKEMDSLTFLYDGIEIQADQTPEDLDMEDNDIIEAHREQIGGSGSGSGSGGIFPPPPDDDIYDGIEEEDADDGFPAPPKQLD | 24.3 µM
ABI3 36-mer peptide (biotinylated (BAP tag), Tested as a biotinylated BAP-6xHis-SUMO-peptide fusion) peptide: MAGGLNDIFEAQKIEWHEDTGGSSHHHHHHGSGSGSDSEVNQEAKPEVKPEVKPETHINLKVSDGSSEIFFKIKKTTPLRRLMEAFAKRQGKEMDSLTFLYDGIEIQADQTPEDLDMEDNDIIEAHREQIGGSGSGSPPPPDEELPLPLDLPPPPPLDGDELGLPPPPPGFG | 13.6 µM
SHROOM3 36-mer peptide (biotinylated (BAP tag), Tested as a biotinylated BAP-6xHis-SUMO-peptide fusion) peptide: MAGGLNDIFEAQKIEWHEDTGGSSHHHHHHGSGSGSDSEVNQEAKPEVKPEVKPETHINLKVSDGSSEIFFKIKKTTPLRRLMEAFAKRQGKEMDSLTFLYDGIEIQADQTPEDLDMEDNDIIEAHREQIGGSGSGVYSMDDFPPPPPHTVCEAQLDSEDPEGPRPSFNKLS | 9.3 µM
SYNPO2 36-mer peptide (biotinylated (BAP tag), Tested as a biotinylated BAP-6xHis-SUMO-peptide fusion) peptide: MAGGLNDIFEAQKIEWHEDTGGSSHHHHHHGSGSGSDSEVNQEAKPEVKPEVKPETHINLKVSDGSSEIFFKIKKTTPLRRLMEAFAKRQGKEMDSLTFLYDGIEIQADQTPEDLDMEDNDIIEAHREQIGGSGSGKSPIADFPAPPPYSAVTPPPDAFSRGVSSPIAGPAQ | 52.1 µM
KIAA1522 36-mer peptide (biotinylated (BAP tag), Tested as a biotinylated BAP-6xHis-SUMO-peptide fusion; also called KIAAA1522) peptide: MAGGLNDIFEAQKIEWHEDTGGSSHHHHHHGSGSGSDSEVNQEAKPEVKPEVKPETHINLKVSDGSSEIFFKIKKTTPLRRLMEAFAKRQGKEMDSLTFLYDGIEIQADQTPEDLDMEDNDIIEAHREQIGGSGSGPPAPEEQDLSMADFPPPEEAFFSVASPEPAGPSGSP | 14 µM
FHOD1 peptide (biotinylated (BAP tag), Tested as a biotinylated BAP-6xHis-SUMO-peptide fusion) peptide: MAGGLNDIFEAQKIEWHEDTGGSSHHHHHHGSGSGSDSEVNQEAKPEVKPEVKPETHINLKVSDGSSEIFFKIKKTTPLRRLMEAFAKRQGKEMDSLTFLYDGIEIQADQTPEDLDMEDNDIIEAHREQIGGSGSGSVPPPPPLPPPPPIKGPFPPPPPLPLAAPLPHSVPD | 50.4 µM
NUTM2E 36-mer peptide (biotinylated (BAP tag), Tested as a biotinylated BAP-6xHis-SUMO-peptide fusion) peptide: MAGGLNDIFEAQKIEWHEDTGGSSHHHHHHGSGSGSDSEVNQEAKPEVKPEVKPETHINLKVSDGSSEIFFKIKKTTPLRRLMEAFAKRQGKEMDSLTFLYDGIEIQADQTPEDLDMEDNDIIEAHREQIGGSGSGVVPVMAAQVVGGTQACEGGWSQGLPLPPPPPPAAQL | 33.9 µM
TJAP1 36-mer peptide (biotinylated (BAP tag), Tested as a biotinylated BAP-6xHis-SUMO-peptide fusion) peptide: MAGGLNDIFEAQKIEWHEDTGGSSHHHHHHGSGSGSDSEVNQEAKPEVKPEVKPETHINLKVSDGSSEIFFKIKKTTPLRRLMEAFAKRQGKEMDSLTFLYDGIEIQADQTPEDLDMEDNDIIEAHREQIGGSGSGPEEELPLPAFEKLNPYPTPSPPHPLYPGRRVIEFSE | 23.9 µM
FBLIM1 36-mer peptide (biotinylated (BAP tag), Tested as a biotinylated BAP-6xHis-SUMO-peptide fusion) peptide: MAGGLNDIFEAQKIEWHEDTGGSSHHHHHHGSGSGSDSEVNQEAKPEVKPEVKPETHINLKVSDGSSEIFFKIKKTTPLRRLMEAFAKRQGKEMDSLTFLYDGIEIQADQTPEDLDMEDNDIIEAHREQIGGSGSGPPVLDGEDVLPDLDLLPPPPPPPPVLLPSEEEAPAP | 16 µM
TNK2 36-mer peptide (biotinylated (BAP tag), Tested as a biotinylated BAP-6xHis-SUMO-peptide fusion) peptide: MAGGLNDIFEAQKIEWHEDTGGSSHHHHHHGSGSGSDSEVNQEAKPEVKPEVKPETHINLKVSDGSSEIFFKIKKTTPLRRLMEAFAKRQGKEMDSLTFLYDGIEIQADQTPEDLDMEDNDIIEAHREQIGGSGSGTPVVDWDARPLPPPPAYDDVAQDEDDFEICSINSTL | 21.2 µM
